*1 amine or outer side, *2 acyl side, *3 side chain or, on linkers, in order; H or OH if unused. Where no end group is shown, it is not given here. [ ]: non-standard residue; d: D form. Asp(NHCH2Ph) = Asp side-chain benzylamide, O=C(C[C@H](N[*:1])C(=O)[*:2])NCc1ccccc1; Cys(CH2-Ph) = S-benzyl-Cys, O=C([C@H](CSCc1ccccc1)N[*:1])[*:2]; Phe(3-CH2NH2) = O=C([C@H](Cc1cccc(CN[*:3])c1)N[*:1])[*:2]; Bip = N[C@@H](Cc1ccc(-c2ccccc2)cc1)C(=O)O; d(pS) = N[C@H](COP(=O)(O)O)C(=O)O; hCha = N[C@@H](CCC1CCCCC1)C(=O)O; hPhe = N[C@@H](CCc1ccccc1)C(=O)O; pS = N[C@@H](COP(=O)(O)O)C(=O)O; Cit = NC(=O)NCCC[C@H](N)C(=O)O; βAla = NCCC(=O)O
What was measured:
PCSK9-D374Y protein = PCSK9-D374Y protein (Homo sapiens, UniProt Q8NBP7, D374Y); assay: Cellular diI-LDL uptake in HuH7 cells with PCSK9-D374Y; format: cell-based; details: HuH7, 0.5 μg/ml PCSK9-D374Y, 100 uM peptide (FIG. 3)
Chain of PCSK9-D374Y protein (Q8NBP7 153-692 D374Y): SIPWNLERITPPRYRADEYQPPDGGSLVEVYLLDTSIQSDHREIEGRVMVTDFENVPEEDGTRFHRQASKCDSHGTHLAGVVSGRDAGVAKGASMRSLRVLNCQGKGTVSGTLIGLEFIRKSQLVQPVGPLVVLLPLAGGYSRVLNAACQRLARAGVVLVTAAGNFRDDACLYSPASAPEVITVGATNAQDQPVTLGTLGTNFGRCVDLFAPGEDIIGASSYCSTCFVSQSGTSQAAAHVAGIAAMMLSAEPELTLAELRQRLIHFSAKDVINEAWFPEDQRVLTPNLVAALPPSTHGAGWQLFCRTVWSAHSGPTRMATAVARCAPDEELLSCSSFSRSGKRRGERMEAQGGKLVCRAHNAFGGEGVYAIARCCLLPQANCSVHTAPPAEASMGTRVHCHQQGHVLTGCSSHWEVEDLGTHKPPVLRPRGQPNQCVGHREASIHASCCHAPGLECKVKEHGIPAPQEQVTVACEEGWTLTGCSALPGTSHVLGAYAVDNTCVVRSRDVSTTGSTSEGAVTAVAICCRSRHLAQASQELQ
Procedure: (§1) HuH7 cells were incubated in a 96-well plate for a total of 20 h in the absence (Cnt) or presence of 0.5 μg/ml PCSK9-D374Y protein alone (DY) or mixed with 100 uM of various SRX peptides. After 16 h, dil-LDL (5 ug/ml) was added to the incubation mixtures. After 4 h, fluorescence was measured (Ex: 520 nm/Em: 575 nm; cutoff: 550 nm). Dil-LDL uptake is calculated as RFU corrected for the number of cells.
as §1, with “PCSK9 GOF-D374Y” for “PCSK9-D374Y”, “increasing concentrations” for “100 uM”
LDL internalization was measured by uptake of a fluorescently tagged LDL molecule (diI-LDL) in the absence of exogenous PCSK9 (Cnt), in the presence of exogenous PCSK9 (normal PCSK9=WT, D374Y mutant PCSK9=DY), or in the presence of PCSK9 and a tested peptide (indicated as SRX##, or SRX if a single peptide results is shown in a graph).
Cells, such as HepG2, HuH7, FL83B or a cell line transfected with a short-hairpin PCSK9 knockdown sequence such as HepG2/shPCSK9, HuH7/shPCSK9, FL83B/shPCSK9, were seeded at 2×10^4 cells/well in a 96-well plate and cultured at 37 degC in RPMI+10% FBS. After approximately 24 hours, the cell media was aspirated off and replaced with RPMI+3-5 mg/mL LPDS (Lipoprotein Deficient Serum, Millipore) media for further experimentation. Benjannet et al., “Effects of the prosegment and pH on the activity of PCSK9: evidence for additional processing events” J Biol Chem. 285(52): 40965-40978 (2010).
Peptide activity was assessed by culturing cells with: i) no SRX peptide/PCSK9 protein complex (control, Cnt); ii) PCSK9 protein; and iii) SRX peptide/PCSK9 complex. Various permutations of these experimental conditions were also used, including: i) the addition of wild type PCSK9 (WT); ii) a mutant PCSK9 (e.g., D374Y mutant PCSK9, DY); iii) various SRX peptides and/or PCSK9 at the same concentration and/or combinations; iv) various SRX peptides and/or PCSK9 at different concentrations and/or combinations; v) the use of different cells, as mentioned above, with or without a transfected short-hairpin sequence; vi) a pre-incubation of the PCSK9 and SRX peptide (e.g., 1, hour, 2 hours, 3 hours, 4 hours etc.); vii) various temperatures including, but not limited to, body temperature (e.g., 37° C.), supraphysiologic temperature (e.g., 39° C.); and viii) with/without agitation (e.g., shaker or gentle periodic vortexing).
Cells were cultured using one of the combinations of conditions described in the preceding paragraph for 16 hours. After 16 hours, a quantity of diI-LDL (Low density lipoprotein coupled with 1,1′-dioctadecyl-3,3,3′,3′-tetramethylindocarbocyanine perchlorate) needed to bring the media concentration to 5 ug/mL of diI-LDL was added to the culture well and cells continued to be cultured under these new conditions for 4 additional hours. At the end of the 4-hour incubation period (20 total hours of cell culture), the cellular uptake was halted with the addition of 4% formaldehyde in 10 uM Hoechst 33342 in a solvent such as deionized autoclaved water or PBS, and specimens were incubated at 20° C. for 20 minutes. Cell specimens were rinsed twice with PBS and then fluorescence measured with excitation at 360 nm and emission detected at 460 nm to measure DNA content. Cell specimens were then be incubated with a 0.1% SDS in a 0.1 N NaOH solution while being shaken for 10 minutes. Fluorescence of the diI-LDL in the specimens were quantified using excitation at 530 nm and resulting emission at 580 nm.
Fluorescence measurements of diI-LDLR were normalized to estimated cell numbers, determined from the Hoechst fluorescence. […]

[1] = biological target: PCSK9-WT protein (human proprotein convertase subtilisin/kexin type 9) (human, UniProt Q8NBP7 31-692, limits assumed); assay: cell-based or functional assay
Chain of PCSK9-WT protein (human proprotein convertase subtilisin/kexin type 9) (Q8NBP7 31-692 limits assumed): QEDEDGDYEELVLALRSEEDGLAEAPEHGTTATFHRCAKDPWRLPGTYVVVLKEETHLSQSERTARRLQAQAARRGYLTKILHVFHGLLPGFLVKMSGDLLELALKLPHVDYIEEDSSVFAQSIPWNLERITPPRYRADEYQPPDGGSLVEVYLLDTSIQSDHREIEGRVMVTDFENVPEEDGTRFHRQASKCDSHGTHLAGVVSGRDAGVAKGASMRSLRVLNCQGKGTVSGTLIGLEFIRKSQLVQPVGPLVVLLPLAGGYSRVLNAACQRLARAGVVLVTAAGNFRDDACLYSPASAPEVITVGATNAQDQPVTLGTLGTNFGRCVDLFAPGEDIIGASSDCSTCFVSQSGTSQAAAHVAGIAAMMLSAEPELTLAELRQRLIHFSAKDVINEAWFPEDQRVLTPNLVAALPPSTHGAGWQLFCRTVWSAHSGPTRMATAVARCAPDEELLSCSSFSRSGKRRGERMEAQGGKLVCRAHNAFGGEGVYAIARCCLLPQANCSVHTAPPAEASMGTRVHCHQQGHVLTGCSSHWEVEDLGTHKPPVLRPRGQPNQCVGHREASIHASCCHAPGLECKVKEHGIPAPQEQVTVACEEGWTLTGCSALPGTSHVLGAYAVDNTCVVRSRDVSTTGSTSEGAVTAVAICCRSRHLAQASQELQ

Cell Activity of Exemplified Peptides (FACS of cell surface LDLR, HuH7/shPCSK9 cells) [1] | Molecule | further results
> 30 % inhibition below control at 100 uM | Ac-Trp-Ala-[pS] [SRX69: Ac-Trp-Ala-Ser(p)] | 
> 30 % inhibition below control at 100 uM | [Bip]-Ala-[pS]-morpholine [SRX73: Phe(4-Ph)-Ala-Ser(p)-morpholine] | 
> 30 % inhibition below control at 100 uM | Ac-Tyr-Trp-Gly [SRX72: Ac-Tyr-Trp-Gly] | 
> 30 % inhibition above control at 100 uM | LDLFFS [SRX66: Leu-Asp-Leu-Phe-Phe-Ser] | 

Continued, molecule first:

Molecule | Cell Activity of Exemplified Peptides (FACS of cell surface LDLR, HuH7/shPCSK9 cells) [1] | further results
Thr-Leu-Hph-Thr-Trp-Ser-Ser-Ser(p) (TL[hPhe]TWSS[pS]) [Compound 6] |  | LDL internalization (dil-LDL % uptake vs Cnt) (PCSK9-D374Y protein): positively modulated (increased)
TL[Cys(CH2-Ph)]TWSS[pS] [SRX60: Thr-Leu-Cys(CH2-Ph)-Thr-Trp-Ser-Ser-Ser(p)] | > 30 % inhibition above control at 100 uM | 
VYV[Cit]FW-NHEt [SRX314: Val-Tyr-Val-Cit-Phe-Trp-NHEt] |  | cell surface LDLR levels, FACS in HuH7 cells, 10 nM recombinant PCSK9 [1]: > 60 % reversal
VLELYW [SRX65: Val-Leu-Glu-Leu-Tyr-Trp] | > 30 % inhibition above control at 100 uM | 
VYVRF-{NH(cyclopentyl)} [SRX321: Val-Tyr-Val-Arg-Phe-NH(cyclopentyl)] |  | cell surface LDLR levels, FACS in HuH7 cells, 10 nM recombinant PCSK9 [1]: > 60 % reversal
[βAla][Phe(3-CH2NH2)]V[d(pS)]FW [SRX56: β-Ala-Phe(3-CH2NH2)-Val-D-Ser(p)-Phe-Trp] | > 30 % inhibition above control at 100 uM | 
VYVRFW (not fully specified; printed as Val-Tyr-Val-Arg-Phe-Trp) [SRX55: Val-Tyr-Val-Arg-Phe-Trp] | > 30 % inhibition above control at 100 uM | 
TL[Asp(NHCH2Ph)]TWSS[pS] [SRX61: Thr-Leu-Asp(NHCH2Ph)-Thr-Trp-Ser-Ser-Ser(p)] | > 30 % inhibition above control at 100 uM | 
TL[hCha]TWSS[pS] [SRX62: Thr-Leu-Gly(CH2CH2cyclohexyl)-Thr-Trp-Ser-Ser-Ser(p)] | > 30 % inhibition above control at 100 uM | 
VYV[Cit]FW-NH2 (N-terminus assumed; SMILES CC(C)[C@H](N)C(=O)N[C@@H](Cc1ccc(O)cc1)C(=O)N[C@H](C(=O)N[C@@H](CCCNC(N)=O)C(=O)N[C@@H](Cc1ccccc1)C(=O)N[C@@H](Cc1c[nH]c2ccccc12)C(N)=O)C(C)C) [SRX310: Val-Tyr-Val-Cit-Phe-Trp-NH2] |  | cell surface LDLR levels, FACS in HuH7 cells, 10 nM recombinant PCSK9 [1]: 60 % reversal
